The values that follow come from paper PMC10663500, “High-throughput analysis system of interaction kinetics for data-driven antibody design” (Scientific Reports, 2023).

The Kd is a measure of binding affinity in units of concentration. Read a high Kd as weaker binding. The koff is the first-order rate constant of dissociation. Broadly, the kon is the second-order rate constant of association.

Changes are numbered by the printed parent chain.

B1: toripalimab Fab L.P100H (Fab, V domains shown)
VH: QGQLVQSGAEVKKPGASVKVSCKASGYTFTDYEMHWVRQAPIHGLEWIGVIESETGGTAYNQKFKGRVTITADKSTSTAYMELSSLRSEDTAVYYCAREGITTVATTYYWYFDVWGQGTTVTVSS
VL: DVVMTQSPLSLPVTLGQPASISCRSSQSIVHSNGNTYLEWYLQKPGQSPQLLIYKVSNRFSGVPDRFSGSGSGTDFTLKISRVEAEDVGVYYCFQGSHVHLTFGQGTKLEIK
notes: as the heavy chain of Sm3; light chain of Sm3 with this change; numbers count from the chain's first residue; source: Brevibacillus, culture supernatant (ammonium sulfate precipitate); not shown: 6xHis, C-terminal, kept; 6xHN, C-terminal, kept
B2: toripalimab Fab L.P100R (Fab, V domains shown)
VH: B1 VH
VL: B1 VL with H100R
notes: as for B1
B3: toripalimab Fab L.P100W (Fab, V domains shown)
VH: B1 VH
VL: B1 VL with H100W
notes: as for B1
B4: toripalimab Fab L.P100Q (Fab, V domains shown)
VH: B1 VH
VL: B1 VL with H100Q
notes: as for B1
B5: toripalimab Fab L.P100M (Fab, V domains shown)
VH: B1 VH
VL: B1 VL with H100M
notes: as for B1
B6: toripalimab Fab L.L101D (Fab, V domains shown)
VH: B1 VH
VL: B1 VL with H100P, L101D
notes: as for B1
B7: toripalimab Fab L.L101E (Fab, V domains shown)
VH: B1 VH
VL: B1 VL with H100P, L101E
notes: as for B1
B8: toripalimab Fab L.L101I (Fab, V domains shown)
VH: B1 VH
VL: B1 VL with H100P, L101I
notes: as for B1
B9: toripalimab Fab L.P100S (Fab, V domains shown)
VH: B1 VH
VL: B1 VL with H100S
notes: as for B1
B10: toripalimab Fab H.S53A (Fab, V domains shown)
VH: B1 VH with S53A
VL: B1 VL with H100P
notes: heavy chain of Sm3 with this change; numbers count from the chain's first residue; as the light chain of Sm3; source: Brevibacillus, culture supernatant (ammonium sulfate precipitate); not shown: 6xHis, C-terminal, kept; 6xHN, C-terminal, kept
B11: toripalimab Fab L.P100L (Fab, V domains shown)
VH: B1 VH
VL: B1 VL with H100L
notes: as for B1
B12: toripalimab Fab L.L101G (Fab, V domains shown)
VH: B1 VH
VL: B1 VL with H100P, L101G
notes: as for B1
B13: toripalimab Fab L.P100K (Fab, V domains shown)
VH: B1 VH
VL: B1 VL with H100K
notes: as for B1
B14: toripalimab Fab L.P100N (Fab, V domains shown)
VH: B1 VH
VL: B1 VL with H100N
notes: as for B1
B15: toripalimab Fab L.P100Y (Fab, V domains shown)
VH: B1 VH
VL: B1 VL with H100Y
notes: as for B1
B16: toripalimab Fab L.L101A (Fab, V domains shown)
VH: B1 VH
VL: B1 VL with H100P, L101A
notes: as for B1
B17: toripalimab Fab L.P100T (Fab, V domains shown)
VH: B1 VH
VL: B1 VL with H100T
notes: as for B1
B18: toripalimab Fab L.L101F (Fab, V domains shown)
VH: B1 VH
VL: B1 VL with H100P, L101F
notes: as for B1
B19: toripalimab Fab L.P100V (Fab, V domains shown)
VH: B1 VH
VL: B1 VL with H100V
notes: as for B1
B20: toripalimab Fab L.P100I (Fab, V domains shown)
VH: B1 VH
VL: B1 VL with H100I
notes: as for B1
B21: toripalimab Fab H.S53Y (Fab, V domains shown)
VH: B1 VH with S53Y
VL: B1 VL with H100P
notes: as for B10

T2 sequence (Q15116 24-167 C93S): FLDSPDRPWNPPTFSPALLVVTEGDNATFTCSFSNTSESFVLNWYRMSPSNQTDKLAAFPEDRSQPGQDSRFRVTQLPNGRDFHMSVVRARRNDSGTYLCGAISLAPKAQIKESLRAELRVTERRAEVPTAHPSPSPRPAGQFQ

The target in the first assay is T1, mouse programmed cell death protein 1 Fc fusion protein (mPD-1-Fc), mPD-1 C60S (aa 25-167) (Mus musculus, UniProt Q02242, stabilised).
T1 construct: not cleaved; source: Expi293F, purified (Protein A, SEC; dimeric fraction); not shown: Fc (human), C-terminal, kept
The experiment in a line: SPR; Carterra LSA; Fab from the ammonium sulfate precipitate of the culture supernatant immobilised on a NiHC200M chip; hPD-1 (1-1024 nM) or mPD-1-Fc (4-1024 nM) as analyte, fourfold dilution series, no regeneration; HBS-EP pH 7.4, 25 °C; medians over the spots of a construct, KD = koff/kon. To be noted: one partner purified. An outline of the steps:
(§1)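 Human PD-1 (1–1024 nM) or mouse PD-1-Fc (4–1024 nM), in fourfold series, was flowed without regeneration over Fabs captured in duplicate on a NiHC200M chip (Carterra LSA, 25 °C), using 10 min association and 5 min dissociation. The Fabs had been recovered from Brevibacillus culture supernatants by ammonium sulfate precipitation and redissolved in HBS-EP. For binding constants, KD was defined as koff/kon from per-construct medians, with rates fitted by the kdka model under slow- or fast-dissociation settings (best fit) and unconfirmed binders set to kon 10^3 […] and koff 10^−2 s^−1.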
On to B1, for which the Kd is less than 1.06 nM, the koff was less than 1e-05 s⁻¹ and the kon came out at 9460 M⁻¹ s⁻¹.

In the case of B2, the Kd was 24.7 nM, the koff came out at 0.000274 s⁻¹ and the kon turned out to be 11100 M⁻¹ s⁻¹.

As for B3, binding was put at a Kd of 3.6 nM, the koff was found to be 3.39e-05 s⁻¹ and the kon is 9410 M⁻¹ s⁻¹.

In turn, B4 came in with a dissociation constant (Kd) of 8.31 nM, a koff of 9.77e-05 s⁻¹ and a kon of 11800 M⁻¹ s⁻¹.

The molecule B5 registered a Kd of 8.48 nM, a koff of 0.000121 s⁻¹ and an association rate constant (kon) of 14200 M⁻¹ s⁻¹.

In turn, B6 showed a Kd of 172 nM, an off-rate constant (koff) of 0.0046 s⁻¹ and an on-rate constant (kon) of 26800 M⁻¹ s⁻¹.

The molecule B7 displayed a Kd of 95.6 nM, a koff of 0.00392 s⁻¹ and an association rate constant (kon) of 41000 M⁻¹ s⁻¹.

In the case of B8, the Kd came out at 34.3 nM, the koff worked out at 0.00056 s⁻¹ and the kon stood at 16300 M⁻¹ s⁻¹.

As for B9, binding was characterised by a dissociation constant (Kd) of 45.9 nM, the koff is 0.00105 s⁻¹ and the kon was 22900 M⁻¹ s⁻¹.

The molecule B10 had a dissociation constant Kd of 94 nM, a koff of 0.00411 s⁻¹ and an association rate constant (kon) of 43700 M⁻¹ s⁻¹.

Take B11: the Kd worked out at 9.99 nM, the off-rate constant (koff) came to 0.000147 s⁻¹ and the kon was 14700 M⁻¹ s⁻¹.

B12: the Kd was 40.1 nM, the koff was 0.000405 s⁻¹ and the association rate constant (kon) worked out at 10100 M⁻¹ s⁻¹.

B13 came in with a Kd of 60.6 nM, an off-rate constant (koff) of 0.000824 s⁻¹ and an association rate constant (kon) of 13600 M⁻¹ s⁻¹.

Molecule B14 gave a dissociation constant (Kd) of 15.9 nM, an off-rate (koff) of 0.0003 s⁻¹ and an on-rate (kon) of 18900 M⁻¹ s⁻¹.

Regarding B15, binding was put at a Kd of 1.79 nM, the koff was found to be 3.62e-05 s⁻¹ and the on-rate (kon) came to 20200 M⁻¹ s⁻¹.

B16: the Kd came to 26.6 nM, the dissociation rate constant (koff) worked out at 0.000225 s⁻¹ and the kon came out at 8470 M⁻¹ s⁻¹.

The molecule B17 returned a Kd of 19.4 nM, a koff of 0.000259 s⁻¹ and a kon of 13400 M⁻¹ s⁻¹.

B18 showed a dissociation constant (Kd) of 1020 nM, a dissociation rate constant (koff) of 0.0615 s⁻¹ and an on-rate (kon) of 60300 M⁻¹ s⁻¹.

B19 displayed a dissociation constant Kd of 30.1 nM, a koff of 0.000479 s⁻¹ and a kon of 15900 M⁻¹ s⁻¹.

As to B20, the Kd came out at 23.2 nM, the dissociation rate constant (koff) came to 0.000324 s⁻¹ and the kon worked out at 13900 M⁻¹ s⁻¹.

In turn, B21 came in with an equilibrium dissociation constant (Kd) of 187 nM, a koff of 0.00628 s⁻¹ and a kon of 33500 M⁻¹ s⁻¹.

Another assay addresses T2, human programmed cell death protein 1 (hPD-1) C93S (aa 24-167) (Homo sapiens, UniProt Q15116, C93S).
T2 construct: made as a fusion with a TEV site and human Fc; the Fc was cut off with TEV protease; source: Expi293F, purified (Protein A, TEV cleavage of Fc, SEC; monomer fractions); not shown: Fc (human), C-terminal, cleaved
The assay is described as above. The settings on record: one partner purified. Summed up:
as §1
With B1, binding was put at a Kd of 2.24 nM, the koff came out at 1.56e-05 s⁻¹ and the association rate constant (kon) was determined as 6960 M⁻¹ s⁻¹.

For the molecule B2, binding was put at a Kd of 2.13 nM, the koff amounted to 1.32e-05 s⁻¹ and the kon came out at 6230 M⁻¹ s⁻¹.

In the case of B3, the Kd is less than 1.54 nM, the off-rate constant (koff) is less than 1e-05 s⁻¹ and the kon was 6510 M⁻¹ s⁻¹.

As for B4, the Kd amounted to 9.25 nM, the koff turned out to be 7.95e-05 s⁻¹ and the kon turned out to be 8600 M⁻¹ s⁻¹.

B5 displayed an equilibrium dissociation constant (Kd) of 3.81 nM, a koff of 5.38e-05 s⁻¹ and an association rate constant (kon) of 14100 M⁻¹ s⁻¹.

Take B6: the Kd was less than 1.66 nM, the koff was less than 1e-05 s⁻¹ and the on-rate (kon) was 6020 M⁻¹ s⁻¹.

B7 had a Kd of 13.6 nM, a koff of 0.000124 s⁻¹ and a kon of 9060 M⁻¹ s⁻¹.

In the case of B8, the dissociation constant Kd was less than 1.55 nM, the dissociation rate constant (koff) was less than 1e-05 s⁻¹ and the kon stood at 6430 M⁻¹ s⁻¹.

As to B9, the dissociation constant Kd was less than 1.59 nM, the koff is less than 1e-05 s⁻¹ and the kon was determined as 6280 M⁻¹ s⁻¹.

The molecule B10 had a Kd of less than 1.27 nM, an off-rate (koff) of less than 1e-05 s⁻¹ and an on-rate constant (kon) of 7880 M⁻¹ s⁻¹.

B11 returned a dissociation constant (Kd) of 13.8 nM, a koff of 0.000129 s⁻¹ and an on-rate (kon) of 9280 M⁻¹ s⁻¹.

For B12, the Kd was less than 1.95 nM, the koff was less than 1e-05 s⁻¹ and the kon was determined as 5120 M⁻¹ s⁻¹.

In the case of B13, the affinity, expressed as Kd, was 7.78 nM; the koff is 5.19e-05 s⁻¹; the on-rate (kon) was found to be 6670 M⁻¹ s⁻¹.

Molecule B14 yielded a Kd of 1.39 nM, a koff of 2.33e-05 s⁻¹ and a kon of 16800 M⁻¹ s⁻¹.

The molecule B15 showed a dissociation constant (Kd) of less than 0.355 nM, a koff of less than 1e-05 s⁻¹ and a kon of 28200 M⁻¹ s⁻¹.

B16 displayed a Kd of less than 1.61 nM, a dissociation rate constant (koff) of less than 1e-05 s⁻¹ and a kon of 6210 M⁻¹ s⁻¹.

B17 registered a Kd of 1.24 nM, a dissociation rate constant (koff) of 1.18e-05 s⁻¹ and an on-rate (kon) of 9480 M⁻¹ s⁻¹.

B18 showed a Kd of 7.96 nM, a koff of 0.000141 s⁻¹ and an association rate constant (kon) of 17700 M⁻¹ s⁻¹.

In turn, B19 yielded a Kd of 7.83 nM, a koff of 6.3e-05 s⁻¹ and a kon of 8040 M⁻¹ s⁻¹.

Consider B20, for which the dissociation constant (Kd) amounted to 12.3 nM, the koff amounted to 8.88e-05 s⁻¹ and the on-rate (kon) stood at 7200 M⁻¹ s⁻¹.

The molecule B21 displayed a Kd of less than 1.18 nM, a koff of less than 1e-05 s⁻¹ and a kon of 8440 M⁻¹ s⁻¹.
